For three molecules, inhibition of HUVEC migration (scratch wound assay, 50 ng/ml rhVEGF) and Kd results are on record in patent US20100234283A1.

The target of one assay is VEGFR-2 on HUVEC and 293/KDR cells (human), P35968. Kind of assay: cell-based or functional assay.
Consider ITMQCGIHQGQHPKIMICEMSF (modifications not checked) [VEGF-P3(CYC)], for which the inhibition of HUVEC migration (scratch wound assay, 50 ng/ml rhVEGF) was 50%.
On the same count and under the same terms, under ITMQIMRIKPHQGQHIGEMSF (modifications not checked) [VEGF 102-122] stands 50%.
Turning to ITMQCGIHQGQHPKIMICEMSF (modifications not checked) [VEGF-P3(NC)], the inhibition of HUVEC migration (scratch wound assay, 50 ng/ml rhVEGF) stood at 50%.

Another assay deals with T1, KDR-Fc (R&D System), P35968.
T1 chain: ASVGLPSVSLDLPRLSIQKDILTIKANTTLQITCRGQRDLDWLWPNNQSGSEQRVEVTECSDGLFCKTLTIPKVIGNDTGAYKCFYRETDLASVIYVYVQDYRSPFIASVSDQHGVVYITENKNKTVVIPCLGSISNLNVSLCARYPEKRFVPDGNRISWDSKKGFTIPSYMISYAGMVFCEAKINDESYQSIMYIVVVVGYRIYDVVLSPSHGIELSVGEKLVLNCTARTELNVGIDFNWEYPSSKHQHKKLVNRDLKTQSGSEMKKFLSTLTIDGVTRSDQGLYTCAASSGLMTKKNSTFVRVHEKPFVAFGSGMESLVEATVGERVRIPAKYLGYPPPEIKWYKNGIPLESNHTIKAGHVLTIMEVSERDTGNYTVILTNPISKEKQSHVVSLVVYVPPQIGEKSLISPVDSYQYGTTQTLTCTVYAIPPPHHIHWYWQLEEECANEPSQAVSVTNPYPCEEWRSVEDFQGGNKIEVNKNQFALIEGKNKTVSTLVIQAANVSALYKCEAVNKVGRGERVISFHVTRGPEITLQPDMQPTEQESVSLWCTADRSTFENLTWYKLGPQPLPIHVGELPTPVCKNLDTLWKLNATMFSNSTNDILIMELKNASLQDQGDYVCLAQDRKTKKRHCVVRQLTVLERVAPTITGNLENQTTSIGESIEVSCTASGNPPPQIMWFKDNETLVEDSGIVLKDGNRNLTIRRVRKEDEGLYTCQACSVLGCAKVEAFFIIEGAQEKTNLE
Briefly: SPR (BIAcore 3000), peptide on CM5 chip, KDR-Fc injected, 1:1 Langmuir fit. Background: In SPR one partner is held on a chip, and binding of the other changes the refractive index at the surface.
The molecule ITMQCGIHQGQHPKIMICEMSF (modifications not checked) [VEGF-P3(CYC)] returned an equilibrium dissociation constant (Kd) of 11 nM.
With ITMQIMRIKPHQGQHIGEMSF (modifications not checked) [VEGF 102-122], the Kd stood at 45 nM.
With ITMQCGIHQGQHPKIMICEMSF (modifications not checked) [VEGF-P3(NC)], the Kd is 49 nM.

The term Kd denotes the concentration at which binding is half-saturated. Low readings indicate higher affinity, high ones lower affinity.
